Measured values from article PMC5467005, “Functional Characterization of Tea (Camellia sinensis) MYB4a Transcription Factor Using an Integrative Approach”.
Where a chain is given by its changes, count along the chain named.

Biological target: CsMYB4a (Camellia sinensis, UniProt A0A1V0G0T8 1-244)
Assay: EMSA; Not given; EMSA according to Shen et al. 2012; salmon sperm DNA as non-specific competitor
Settings: protein: recombinant; tags: N-terminal His-tag; blunt

Sequence of CsMYB4a (A0A1V0G0T8 entry or part of it): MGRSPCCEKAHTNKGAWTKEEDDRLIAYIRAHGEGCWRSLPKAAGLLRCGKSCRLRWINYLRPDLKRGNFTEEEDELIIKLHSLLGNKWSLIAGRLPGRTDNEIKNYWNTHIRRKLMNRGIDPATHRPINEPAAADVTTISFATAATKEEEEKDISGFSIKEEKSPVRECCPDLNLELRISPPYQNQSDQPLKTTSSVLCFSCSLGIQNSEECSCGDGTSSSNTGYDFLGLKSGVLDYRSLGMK

B1: AC-I probe (dsDNA)
DNA 1: CGGTACCAGTCCACCTACCGCCACCTACCGCCACCTACCGCTGTTCTCGA
DNA 2: TCGAGAACAGCGGTAGGTGGCGGTAGGTGGCGGTAGGTGGACTGGTACCG
binding result: binds

B2: AC-II probe (dsDNA)
DNA 1: B1 DNA 1 with T16A, T26A, T36A
DNA 2: B1 DNA 2 with A15T, A25T, A35T
binding result: binds

B3: AC-III probe (dsDNA)
DNA 1: CCAGTCCACCTAACTCTACCTAACTCTACCTAACGCTGTTC
DNA 2: GAACAGCGTTAGGTAGAGTTAGGTAGAGTTAGGTGGACTGG
binding result: binds

B4: AC-IV probe (dsDNA)
DNA 1: B3 DNA 1 with T11A, T21A, T31A
DNA 2: B3 DNA 2 with A11T, A21T, A31T
binding result: binds
